Measurements as given in PMC8351524 (2021).

Molecular target: T1, APOC2 (Homo sapiens, UniProt P02655)
T1 chain: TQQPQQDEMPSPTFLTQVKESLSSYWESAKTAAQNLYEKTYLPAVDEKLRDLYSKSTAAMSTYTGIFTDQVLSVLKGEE
Assay: biolayer interferometry

- Kd: 128 nM
B1: CD36 (protein)
chain: GCDRNCGLIAGAVIGAVLAVFGGILMPVGDLLIQKTIKKQVVLEEGTIAFKNWVKTGTEVYRQFWIFDVQNPQEVMMNSSNIQVKQRGPYTYRVRFLAKENVTQDAEDNTVSFLQPNGAIFEPSLSVGTEADNFTVLNLAVAAASHIYQNQFVQMILNSLINKSKSSMFQVRTLRELLWGYRDPFLSLVPYPVTTTVGLFYPYNNTADGVYKVFNGKDNISKVAIIDTYKGKRNLSYWESHCDMINGTDAASFPPFVEKSQVLQFFSSDICRSIYAVFESDVNLKGIPVYRFVLPSKAFASPVENPDNYCFCTEKIISKNCTSYGVLDISKCKEGRPVYISLPHFLYASPDVSEPIDGLNPNEEEHRTYLDIEPITGFTLQFAKRLQVNLLVKPSEKIQVLKNLKRNYIVPILWLNETGTIGDEKANMFRSQVTGKINLLGLIEMILLSVGVVMFVAFMISYCACRSKTIK
